Experimental data from PMC3604778.
Like-named read-outs stand apart in the source and are kept apart here.

What was measured:
[1] = molecular target: human plasminogen (human); assay: SPR
[2] = molecular target: SCM expressed on the surface of S. canis G361 (Streptococcus canis (endogenous in strain G361)); assay: radioligand binding
[3] = molecular target: human plasminogen (human); assay: radioligand binding
[4] = molecular target: SCM expressed on the surface of S. canis G361 (Streptococcus canis (endogenous in strain G361)); assay: radioligand binding; remark: listed apart in the source

Kd [1] [µM]	Substance	percent binding of 125I-SCM to G361 bacteria [2] [%]	percent binding of 125I-plasminogen to G361 left with 1.0 µM nonlabeled SCM [3] [%]	percent binding of 125I-SCM to G361 (1 × 10^7 bacteria) [4] [%]	percent binding of 125I-SCM to G361 (2 × 10^7 bacteria) [4] [%]	percent binding of 125I-SCM to G361 (4 × 10^6 bacteria) [4] [%]	percent binding of 125I-SCM to G361 (control without inhibitor) [4] [%]	percent binding of 125I-SCM to G361 bacteria [4] [%]	percent binding of 125I-SCM to G361 left with 1.0 µM nonlabeled SCM [4] [%]	percent binding of 125I-SCM to G361 left with 10.0 µg nonlabeled SCM [4] [%]	percent specific binding of 125I-SCM to G361 bacteria [4] [%]
0.8	recombinant S. canis enolase (strain G361) (from UniProt A0A2D4DNT6 1-435) (enzyme)										
	purified recombinant SCM, M-like protein of S. canis (derived from strain G361) (natural protein)	25.7	41.3	13.1	19.3	6.5	28.7	23.5	15.8	4.2	20.5
